Results taken from PMC7614532 (Cell, 2023).

Biological target: N-terminally SNAP-tagged human β2AR (SNAP-β2AR) (human, UniProt P07550 1-413)
Test: single-molecule co-localisation

average interaction time: ~1 s
B1: bovine βArr2 tagged C-terminally with Halo (βArr2-Halo) (natural protein)
chain: MGEKPGTRVFKKSSPNCKLTVYLGKRDFVDHLDKVDPVDGVVLVDPDYLKDRKVFVTLTCAFRYGREDLDVLGLSFRKDLFIANYQAFPPTPNPPRPPTRLQERLLRKLGQHAHPFFFTIPQNLPCSVTLQPGPEDTGKACGVDFEIRAFCAKSLEEKSHKRNSVRLVIRKVQFAPEKPGPQPSAETTRHFLMSDRSLHLEASLDKELYYHGEPLNVNVHVTNNSTKTVKKIKVSVRQYADICLFSTAQYKCPVAQVEQDDQVSPSSTFCKVYTITPLLSNNREKRGLALDGKLKHEDTNLASSTIVKEGANKEVLGILVSYRVKVKLVVSRGGDVSVELPFVLMHPKPHDHIALPRPQSAAPETDAPVDTNLIEFETNYATDDDIVFEDFARLRLKGLKDEDYDDQFC
